According to IntAct's records for PubMed 21808041:

B1: Non-structural protein 1 (Influenza B virus (strain B/Lee/1940)), P03502 (parent)
chain: MADNMTTTQIEVGPGATNATINFEAGILECYERFSWQRALDYPGQDRLHRLKRKLESRIKTHNKSEPENKRMSLEERKAIGVKMMKVLLFMDPSAGIEGFEPYCVKNPSTSKCPNYDWTDYPPTPGKYLDDIEEEPENVDHPIEVVLRDMNNKDARQKIKDEVNTQKEGKFRLTIKRDIRNVLSLRVLVNGTFLKHPNGDKSLSTLHRLNAYDQNGGLVAKLVATDDRTVEDEKDGHRILNSLFERFDEGHSKPIRAAETAVGVLSQFGQEHRLSPEEGDN

Variants of: B1
Conditions: with isg15_human ISG15, P05161
isg15_human ISG15, P05161, sequence (P05161 whole entry): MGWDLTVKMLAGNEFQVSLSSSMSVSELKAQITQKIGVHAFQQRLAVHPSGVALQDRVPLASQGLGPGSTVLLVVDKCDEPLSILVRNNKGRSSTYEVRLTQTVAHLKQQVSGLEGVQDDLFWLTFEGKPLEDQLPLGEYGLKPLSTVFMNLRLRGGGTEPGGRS

Row | Variant | effect of a mutation on the interaction
1 | MADNMTTTQIEVGPGATNATINFEAGILECYERFSAARALDYPGQDRLHRLKRKLESRIKTHNKSEPENKRMSLEERKAIGVKMMKVLLFMDPSAGIEGFEPYCVKNPSTSKCPNYDWTDYPPTPGKYLDDIEEEPENVDHPIEVVLRDMNNKDARQKIKDEVNTQKEGKFRLTIKRDIRNVLSLRVLVNGTFLKHPNGDKSLSTLHRLNAYDQNGGLVAKLVATDDRTVEDEKDGHRILNSLFERFDEGHSKPIRAAETAVGVLSQFGQEHRLSPEEGDN [W36A;Q37A] | disrupting interaction strength
2 | MADNMTTTQIEVGPGATNATINFEAGILECYERFSWQRALDYPGQDRLHRLKRKLESRIKTHNKSEPENKRMSLEERKAIGVKMMKVLLFADPSAGIEGAEPYCVKNPSTSKCPNYDWTDYPPTPGKYLDDIEEEPENVDHPIEVVLRDMNNKDARQKIKDEVNTQKEGKFRLTIKRDIRNVLSLRVLVNGTFLKHPNGDKSLSTLHRLNAYDQNGGLVAKLVATDDRTVEDEKDGHRILNSLFERFDEGHSKPIRAAETAVGVLSQFGQEHRLSPEEGDN [M91A;F100A] | decreasing interaction strength
